Values joined by “and” are separate entries in the source; they are usually repeats but may differ in a detail not shown here. Identical values can stand only once. Like-named read-outs stand apart in the source and are kept apart here.
Experiments:
[1] = biological target: Anti-Her2 BCR on B cells (from Trastuzumab vector, with PDGFR TM); assay: flow cytometry; GFP viruses displaying HER2 on HER2-BCR+ B cells
[2] = biological target: Flu-m158-66-TCR, on Jurkat T cells
[3] = biological target: CMV-pp65495-503-TCR, on Jurkat T cells
[4] = biological target: NY-ESO-1 TCR, clone 1G4 mutated version (a95:LY) with high affinity, on Jurkat T cells
[5] = biological target: CMV-pp65495-503-TCR, on Jurkat T cells; assay: cell-based or functional assay
[6] = biological target: NY-ESO-1 TCR, clone 1G4 mutated version (a95:LY) with high affinity, on Jurkat T cells; assay: cell-based or functional assay
[7] = biological target: CMV-pp65495-503-TCR, on Jurkat T cells; remark: listed apart in the source
[8] = biological target: CMV-pp65495-503-TCR, on Jurkat T cells; remark: listed apart in the source
[9] = biological target: pp65495-503 tetramer-positive primary human T cells (their TCRs)
[10] = biological target: pp65495-503 tetramer-positive primary human T cells (their TCRs); remark: listed apart in the source
[11] = biological target: NY-ESO-1 TCR, clone 1G4 mutated version (a95:LY) with high affinity, on Jurkat T cells; remark: listed apart in the source
[12] = biological target: NY-ESO-1 TCR, clone 1G4 mutated version (a95:LY) with high affinity, on Jurkat T cells; remark: listed apart in the source
[13] = biological target: peptide on HLA-A*02:01 (human)
[14] = biological target: NY-ESO-1 peptide on HLA-A*02:01 (human)
[15] = biological target: peptide on HLA-A*02:01 (human); remark: listed apart in the source
[16] = biological target: anti-SAR2-RBD BCR on B cells (RBD antibody of PDB 7BWJ with human IgG1 Fc and PDGFR TM); assay: flow cytometry; GFP viruses displaying RBD on RBD-BCR+ B cells

“truncated Her2 (a1-a700) with its native TM domain, displayed on the lentiviral surface (from UniProt P04626 23-700) (receptor)” was tested. Which percent of B cells detected (GFP+) [1] did it give?
Its percent of B cells detected (GFP+) is 76%.

Which percent of T cells labeled (GFP+) [2] does the source give for “HPV16 E782-91 peptide presented by HLA-A2, single-chain trimer of pMHC displayed on the lentiviral s (from UniProt P03129 82-91; P61769 21-119) (peptide-MHC)” here?
Its percent of T cells labeled (GFP+) is 1%.

And the percent of T cells labeled (GFP+) [3]?
The percent of T cells labeled (GFP+) was 1%.

And the percent of T cells labeled (GFP+) [4]?
The percent of T cells labeled (GFP+) was 1%.

For “CMV pp65495-503 (…) presented by HLA-A0201, single-chain trimer of pMHC displayed on the lentiviral surface (from UniProt P61769 21-119) (peptide-MHC)”, which GFP transgene expression after infection (cargo delivery) [5] is on record?
Its GFP transgene expression after infection (cargo delivery) is 82%.

What about the depletion of on-target T cells after HSV-TK gene delivery and GCV treatment, against GFP gene delivery [5] of the same substance?
The depletion of on-target T cells after HSV-TK gene delivery and GCV treatment, against GFP gene delivery was 8 fold.

What about the GFP transgene expression after infection (cargo delivery) [6] of the same substance?
The GFP transgene expression after infection (cargo delivery) was 0.22%.

What about the percent of antigen+ cells matched with the corresponding TCR sequence [7] of the same substance?
The percent of antigen+ cells matched with the corresponding TCR sequence was 99.8%.

And the percent of tetramer positive cells that were GFP+ [8]?
Its percent of tetramer positive cells that were GFP+ is over 90%.

And the percent of T cells GFP+ [3]?
The percent of T cells GFP+ was over 87%.

And the percent of tetramer+ T cells labeled [9]?
The percent of tetramer+ T cells labeled was 99%.

What about the percent of tetramer-positive T cells labeled [10] of the same substance?
Its percent of tetramer-positive T cells labeled is 83%.

What about the percent of tetramer-positive T cells recovered [10] of the same substance?
The percent of tetramer-positive T cells recovered was 98%.

What does the source list for “NY-ESO-1157-165 (…) presented by HLA-A0201, single-chain trimer of pMHC displayed on the lentiviral surface (from UniProt P61769 21-119) (peptide-MHC)”?
percent of TCR-T cells stained [11]: 95.7%; percent of antigen+ cells matched with the corresponding TCR sequence [12]: 97.4%; percent of T cells GFP+ [4]: > 87%; percent of T cells labeled (GFP+) [4]: 88.2%

What does the source list for “NY-ESO-1 TCR, clone 1G4, wild-type (1G4 wt)”?
Kd [13]: 10.8 µM and 84.9 µM; Kd [14]: 10.8 µM and 84.9 µM; Kd [15]: 10.8 µM and 84.9 µM

Which percent of B cells labeled (GFP+) [16] does the source give for “Receptor Binding Domain (RBD) from SARS-CoV-2 spike protein fused with ICAM1 TM domain, displayed on (from UniProt P0DTC2 319-541)” here?
Its percent of B cells labeled (GFP+) is 88%.
